Data: patent publication US20040033534A1 (WISCONSIN ALUMNI RESEARCH FOUNDATION, published 2004)
Positions of bridges follow the written chain, without caps; N, C: chain ends. No end group written: not given here.

Assays:
[1] = biological target: PhoB (complete PhoB sequence)
[2] = biological target: T1, VanR~P (phosphorylated VanR) (Enterococcus faecium, UniProt Q06239 1-231, phosphorylated with acetyl phosphate; Asp-55 is named as the residue that accepts the phosphoryl group); assay: not stated (comparison of VanR and VanR˜P; reference is unphosphorylated VanR)
[3] = biological target: T1, VanR~P (phosphorylated VanR); assay: cell-based or functional assay

T1 sequence (Q06239 whole entry): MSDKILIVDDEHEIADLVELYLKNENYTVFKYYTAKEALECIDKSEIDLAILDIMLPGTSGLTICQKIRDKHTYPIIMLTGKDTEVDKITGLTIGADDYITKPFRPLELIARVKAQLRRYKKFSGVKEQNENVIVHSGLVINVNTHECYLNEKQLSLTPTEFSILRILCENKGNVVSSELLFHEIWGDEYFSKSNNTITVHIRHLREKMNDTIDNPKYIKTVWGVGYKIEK

B1: GST-VanSc (Arg-93-TAA-283 stop) (protein)
chain: RVMLSKFAKYFDEINTGIDVLIQNEDKQIELSAEMDVMEQKLNTLKRTLEKREQDAKLAEQRKNDVVMYLAHDIKTPLTSIIGYLSLLDEAPDMPVDQKAKYVHITLDKAYRLEQLIDEFFEITRYNLQTITLTKTHIDLYYMLVQMTDEFYPQLSAHGKQAVIHAPEDLTVSGDPDKLARVFNNILKNAA
phosphoryl transfer from VanS˜P to PhoB [1]: VanS˜P was incubated with PhoB, and phosphoryl transfer was assessed

SLCHDSVIGWEC (disulfide 3-12 (inferred), also called Peptide E12) [dodecamer peptide SEQ ID NO. 1]
fold difference between binding to VanR and binding to VanR˜P [2]: > 100 fold

SLAHDSIIGYLS [peptide SEQ ID NO. 2]
IC50 for inhibiting VanR˜P binding to [32P] PVanH (gel shift), relative to SEQ ID NO. 1 [3]: 10 fold
